In experiment [1] the target is Alpha fetoprotein (UniProt P02771). Kind of experiment: multiplex sandwich, S10473 capture beads; AFP 1 ng/mL, washed.
Experiment [2] shares this target. Kind of experiment: multiplex sandwich, S10473 capture beads; AFP 4 ng/mL, washed.
Experiment [3] shares this target. Briefly: multiplex sandwich, S10473 capture beads; AFP 8 ng/mL, washed.
For experiment [4] the target is unchanged. Kind of experiment: multiplex sandwich, S10473 capture beads; AFP 4 ng/mL, no wash.
Experiment [5] shares this target. Briefly: multiplex sandwich, S10473 capture beads; AFP 62 ng/mL, no wash.
Experiment [6] has the same target. Kind of experiment: multiplex sandwich, S10473 capture beads; AFP 0.5 ng/mL, no wash.
Experiment [7] has the same target. Kind of experiment: multiplex sandwich, S10473 capture beads; AFP 0.25 ng/mL, no wash.
The target of experiment [8] is Human chorionic gonadotropin (human) (UniProt P01215). Briefly: MAB602 capture beads, flow cytometry; hCG 100.0 ng/mL, anti-AFP probe. In general terms: A flow cytometer gives signals particle by particle.
Chain of UniProt P01215 (P01215 25-116, chain 1 of 2, other chains not shown): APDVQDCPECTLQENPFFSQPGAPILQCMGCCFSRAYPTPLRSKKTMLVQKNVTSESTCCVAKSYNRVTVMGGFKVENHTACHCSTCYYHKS
The target is the same in experiment [9]. Kind of experiment: anti-AFP capture beads, flow cytometry; hCG 1.0 ng/mL, anti-AFP probe.
Experiment [10] concerns the target Alpha fetoprotein (UniProt P02771). Kind of experiment: anti-AFP capture beads, flow cytometry; AFP 100.0 ng/mL, anti-AFP probe.
The target in experiment [11] is Human chorionic gonadotropin (human) (UniProt P01215). Kind of experiment: anti-AFP capture beads, flow cytometry; hCG 100.0 ng/mL, anti-AFP probe.
For experiment [12] the target is unchanged. Kind of experiment: anti-AFP capture beads, flow cytometry; hCG 1000.0 ng/mL, anti-AFP probe.
In a further experiment the target is Peptide 1 …-biotin. Briefly: multiplex peptide beads, flow cytometry; no free biotin.
The next experiment addresses Peptide 2 …-biotin. Described as above.
A further experiment has as its target Peptide 3 …-biotin. The experiment is described as above.
Another experiment concerns the target Peptide 4 …-biotin. The experiment is described as above.
In experiment [13] the target is Peptide 5 …-biotin (human). The experiment is described as above.
The next experiment deals with Peptide 6 …-biotin. The experiment is described as above.
The next experiment addresses Peptide 7 …-biotin. The description is as above.
The target of a further experiment is Peptide 8 …-biotin. The description is as above.
Another experiment addresses Peptide 9 …-biotin. The description is as above.
For experiment [14], the target named is Neutravidin (deglycosylated avidin) (UniProt P02701). Briefly: multiplex, Neutravidin bead 70/70 without peptide, flow cytometry.
Chain of UniProt P02701 (P02701 25-152 limits assumed): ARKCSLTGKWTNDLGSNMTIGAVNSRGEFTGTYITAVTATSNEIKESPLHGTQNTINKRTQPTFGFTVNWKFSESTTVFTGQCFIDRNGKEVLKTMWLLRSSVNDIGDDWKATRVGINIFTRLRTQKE
Experiment [15] has the same target. Briefly: single-analyte, Neutravidin bead 40/50 without peptide, flow cytometry.
Experiment [16] has the same target. Kind of experiment: single-analyte, Neutravidin bead 40/70 without peptide, flow cytometry.
The target of experiment [17] is Human chorionic gonadotropin (human) (UniProt P01215). Kind of experiment: multiplex sandwich, MAB602 capture beads; hCG 0 ng/mL, washed.
Experiment [18] shares this target. Briefly: multiplex sandwich, MAB602 capture beads; hCG 2 ng/mL, washed.
Experiment [19] has the same target. Kind of experiment: multiplex sandwich, MAB602 capture beads; hCG 0 ng/mL, no wash.
For experiment [20] the target is unchanged. Briefly: multiplex sandwich, MAB602 capture beads; hCG 1 ng/mL, no wash.
Experiment [21] has the same target. Briefly: multiplex sandwich, MAB602 capture beads; hCG 16 ng/mL, washed.
For experiment [22] the target is unchanged. Kind of experiment: multiplex sandwich, MAB602 capture beads; hCG 2 ng/mL, no wash.
For experiment [23] the target is unchanged. Briefly: multiplex sandwich, MAB602 capture beads; hCG 4 ng/mL, no wash.
Experiment [24] has the same target. Briefly: sandwich, MAB602 capture beads, flow cytometry; hCG 0.002 ng/mL.
Experiment [25] shares this target. Kind of experiment: multiplex sandwich, MAB602 capture beads; hCG 16 ng/mL, no wash.
Experiment [26] has the same target. Briefly: multiplex sandwich, MAB602 capture beads; hCG 250 ng/mL, washed.
Experiment [27] has the same target. Kind of experiment: multiplex sandwich, MAB602 capture beads; hCG 500 ng/mL, washed.
Experiment [28] has the same target. Briefly: sandwich, MAB602 capture beads, flow cytometry; hCG 0.0002 ng/mL.
Experiment [29] shares this target. Briefly: multiplex sandwich, MAB602 capture beads; hCG 1000 ng/mL, no wash.
The target is the same in experiment [30]. Briefly: MAB602 capture beads, flow cytometry; hCG 100.0 ng/mL, anti-hCG probe.
Experiment [31] concerns the target Alpha fetoprotein (UniProt P02771). Briefly: anti-AFP capture beads, flow cytometry; AFP 0.0 ng/mL, anti-hCG probe.
For experiment [32] the target is unchanged. Kind of experiment: MAB602 capture beads, flow cytometry; AFP 1000.0 ng/mL, anti-hCG probe.
Experiment [33] addresses Human chorionic gonadotropin (human) (UniProt P01215). Kind of experiment: MAB602 capture beads, flow cytometry; hCG 1000.0 ng/mL, anti-hCG probe.
The target is the same in experiment [34]. Briefly: multiplex no-wash sandwich, MAB602 beads; serum Level 3, hCG 436 mU/mL.
Experiment [35] deals with Alpha fetoprotein (UniProt P02771). Briefly: anti-AFP capture beads, flow cytometry; AFP 1000.0 ng/mL, anti-hCG probe.

Where “and” joins values, the source holds several entries; their conditions need not be identical. Equal entries are not always repeated.

Chain of UniProt P02771 (P02771 19-609 limits assumed): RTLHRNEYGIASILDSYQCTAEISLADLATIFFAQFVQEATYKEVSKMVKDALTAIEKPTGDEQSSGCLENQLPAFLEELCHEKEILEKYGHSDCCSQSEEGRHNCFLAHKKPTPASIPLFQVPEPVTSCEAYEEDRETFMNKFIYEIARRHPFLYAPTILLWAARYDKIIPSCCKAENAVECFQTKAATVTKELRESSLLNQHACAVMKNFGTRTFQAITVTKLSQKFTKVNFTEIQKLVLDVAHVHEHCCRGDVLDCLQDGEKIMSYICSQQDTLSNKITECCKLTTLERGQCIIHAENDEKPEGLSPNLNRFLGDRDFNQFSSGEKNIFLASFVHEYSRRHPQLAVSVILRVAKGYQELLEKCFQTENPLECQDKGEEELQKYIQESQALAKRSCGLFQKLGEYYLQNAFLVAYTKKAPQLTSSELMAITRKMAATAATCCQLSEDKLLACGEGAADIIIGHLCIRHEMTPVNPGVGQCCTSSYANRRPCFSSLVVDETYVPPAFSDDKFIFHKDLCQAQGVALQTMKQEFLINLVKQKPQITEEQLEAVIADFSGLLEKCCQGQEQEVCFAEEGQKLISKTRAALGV

For the substance “M20077 affinity purified polyclonal anti-AFP antibody, Bodipy FL-CASE labeled”, the MIF of Fm with Alpha fetoprotein [1] turned out to be 35; in the experiment with Alpha fetoprotein [2] it was 108; in the experiment with Alpha fetoprotein [3], 205; with Alpha fetoprotein [4], 94; with Alpha fetoprotein [5] it was 980; with Alpha fetoprotein [6] it was 24. In addition, the MIF of Fm with Alpha fetoprotein [7] is 17; in [8], 48; in experiment [9], 44; with Alpha fetoprotein [10], 356; in experiment [11], 44; in experiment [12], 78.
As to MAB 384, Bodipy FL-X labeled (antibody), the MIF stood at 13 in the experiment with Peptide 1 …-biotin; 17 with Peptide 2 …-biotin; 20 in the experiment with Peptide 3 …-biotin; 20 with Peptide 4 …-biotin; 915 in [13]; 32 with Peptide 6 …-biotin. Also, the MIF with Peptide 7 …-biotin came out at 19; with Peptide 8 …-biotin it was 31; with Peptide 9 …-biotin it was 31. Also, the MIF of Fm in experiment [14] is 25; in experiment [15] it was 47; in experiment [16], 43.
Take “AB633 affinity purified polyclonal anti-hCG antibody, Bodipy FL-CASE labeled”: the MIF of Fm in [17] is 18; in [18], 547; in experiment [19] it was 15; in experiment [20], 330; in experiment [21], 2530; in experiment [22] it was 650. For the same substance, the MIF of Fm in experiment [23] is 1120; in [24], 122 and 121; in experiment [25], 2440; in experiment [26], 2760; in experiment [27], 3340; in experiment [28] it was 122 and 149. Besides, the MIF of Fm in experiment [29] stood at 770; in experiment [30], 761; in the experiment with Alpha fetoprotein [31] it was 61; with Alpha fetoprotein [32], 53; in [33] it was 792; with Alpha fetoprotein [35] it was 57. For the same substance, the MIF AVG in experiment [34] amounted to 624. For the same substance, in experiment [34], the MIF of FL1 is 631 and 601 and 640.
